Data set [1] concerns the target T1, PacCZF-MBP (Alternaria alternata (tangerine …, UniProt A0A177DU84 1-150)). Description: EMSA; […]; 28°C for 20 min; […]; buffer, […]. The conditions noted are these: protein: recombinant; tags: MBP (pMAL-c5x); label: 3'-biotin; blunt. (In general: A gel shift assay detects complexes by their altered migration in electrophoresis.)
For data set [2], the target named is T1, PacCZF-MBP. Description: competition; excess unlabeled mutant vs labeled WT ACTT6 probe; […]; 28°C for 20 min; […]; buffer, […]. The conditions noted are these: protein: recombinant; tags: MBP (pMAL-c5x); label: unlabeled; blunt.

B1: ACTTR promoter WT probe (dsDNA)
DNA 1: ACGAACCACATCCTCGCCAAGGACATGAATGACACA
DNA 2: TGTGTCATTCATGTCCTTGGCGAGGATGTGGTTCGT
Consider B1, for which the binding result in the data set with PacCZF-MBP [1] is on record as “binds”.

B2: ACTT6 promoter WT probe (dsDNA)
DNA 1: CGTGACTGACATCCCGCCAAGGCTAACCATCCGGGA
DNA 2: TCCCGGATGGTTAGCCTTGGCGGGATGTCAGTCACG
In the case of B2, in the data set with PacCZF-MBP [1], the binding result is “binds”.

B3: ACTT6 promoter mutant competitor (dsDNA)
DNA 1: CGTGACTGACATCCCGAACCGGCTAACCATCCGGGA
DNA 2: TCCCGGATGGTTAGCCGGTTCGGGATGTCAGTCACG
Consider B3, for which the binding result with PacCZF-MBP [2] is “no binding”.

These data come from PMC10715145.
